Assay results as given in PMC9482650, “Quantitative fragmentomics allow affinity mapping of interactomes” (Nature Communications, 2022).

T1: PDZD7_3, Q9H5P4
T1 sequence (Q9H5P4 857-944, limits assumed, looked up): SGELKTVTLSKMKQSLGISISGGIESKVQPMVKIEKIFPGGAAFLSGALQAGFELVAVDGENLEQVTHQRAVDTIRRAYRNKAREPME

T2: SNTG1, Q9NSN8
T2 sequence (Q9NSN8 52-150, limits assumed, looked up): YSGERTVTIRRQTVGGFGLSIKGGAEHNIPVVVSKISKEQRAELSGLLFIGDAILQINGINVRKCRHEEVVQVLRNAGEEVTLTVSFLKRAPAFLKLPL

T3: PARD3B_1, Q8TEW8
T3 sequence (Q8TEW8 196-299, limits assumed, looked up): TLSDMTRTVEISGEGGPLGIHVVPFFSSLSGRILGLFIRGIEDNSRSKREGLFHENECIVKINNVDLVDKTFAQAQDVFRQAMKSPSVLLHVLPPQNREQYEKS

T4: HTRA3, P83110
T4 sequence (P83110 354-453, limits assumed, looked up): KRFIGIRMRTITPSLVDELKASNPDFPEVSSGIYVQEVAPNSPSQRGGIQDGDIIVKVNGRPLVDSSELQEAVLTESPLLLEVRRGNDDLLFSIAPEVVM

T5: DVL3, Q92997
T5 sequence (Q92997 244-331, limits assumed, looked up): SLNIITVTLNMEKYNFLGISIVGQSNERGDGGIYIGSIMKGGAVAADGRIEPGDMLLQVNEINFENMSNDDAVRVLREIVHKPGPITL

T6: TJP3_3, O95049
T6 sequence (O95049 375-456, limits assumed, looked up): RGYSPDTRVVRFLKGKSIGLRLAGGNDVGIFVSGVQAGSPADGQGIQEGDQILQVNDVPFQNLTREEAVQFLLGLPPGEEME

T7: NHERF3_3, Q5T2W1
T7 sequence (Q5T2W1 238-333, limits assumed, looked up): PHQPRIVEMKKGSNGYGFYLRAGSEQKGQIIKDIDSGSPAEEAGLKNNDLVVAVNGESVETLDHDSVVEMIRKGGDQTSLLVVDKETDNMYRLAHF

T8: DFNB31_2, Q9P202
T8 sequence (Q9P202 274-371, limits assumed, looked up): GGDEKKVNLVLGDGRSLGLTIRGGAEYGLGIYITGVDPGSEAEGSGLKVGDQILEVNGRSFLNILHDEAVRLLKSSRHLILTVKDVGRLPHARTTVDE

T9: APBA3_1, O96018
T9 sequence (O96018 389-490, limits assumed, looked up): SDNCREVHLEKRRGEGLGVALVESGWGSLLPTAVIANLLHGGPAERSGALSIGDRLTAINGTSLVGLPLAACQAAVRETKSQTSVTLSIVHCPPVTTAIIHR

T10: SIPA1L2, Q9P2F8
T10 sequence (Q9P2F8 945-1036, limits assumed, looked up): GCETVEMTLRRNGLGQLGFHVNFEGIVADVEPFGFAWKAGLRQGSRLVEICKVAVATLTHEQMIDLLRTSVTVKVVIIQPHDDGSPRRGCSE

T11: SNTA1, Q13424
T11 sequence (Q13424 82-180, limits assumed, looked up): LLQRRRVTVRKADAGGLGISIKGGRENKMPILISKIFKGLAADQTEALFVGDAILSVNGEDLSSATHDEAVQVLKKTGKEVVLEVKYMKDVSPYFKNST

T12: APBA2_1, Q99767
T12 sequence (Q99767 563-664, limits assumed, looked up): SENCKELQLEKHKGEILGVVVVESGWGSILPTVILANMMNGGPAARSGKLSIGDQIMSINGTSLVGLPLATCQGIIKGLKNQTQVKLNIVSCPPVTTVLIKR

B1: IQSEC2, Q5JU85 (peptide)
chain: AKPSRISTVV

These binders were tested against GRIP2_3, Q9C0E4 (assay: holdup assay). Conditions: plain residues with an end cap or a label only (N-terminal biotin on a linker: ado-ado).
GRIP2_3, Q9C0E4, sequence (Q9C0E4 238-339): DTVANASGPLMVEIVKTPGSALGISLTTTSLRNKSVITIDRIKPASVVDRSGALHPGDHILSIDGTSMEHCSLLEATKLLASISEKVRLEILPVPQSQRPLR
Design: key: below the threshold = too weak to quantify, mostly under pKd 3.1 to 4
In the case of B1, the pKd is reported as “below the threshold”.

These binders were tested against ARHGEF12, Q9NZN5-2 (assay: holdup assay). Conditions: plain residues with an end cap or a label only (N-terminal biotin on a linker: ado-ado).
ARHGEF12, Q9NZN5-2, sequence (Q9NZN5 other isoform, or with tags, fused parts or gaps): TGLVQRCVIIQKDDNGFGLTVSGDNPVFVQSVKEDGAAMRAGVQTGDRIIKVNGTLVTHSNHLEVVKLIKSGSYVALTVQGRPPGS
Design: key: below the threshold = too weak to quantify, mostly under pKd 3.1 to 4
A pKd of 4.75 was found for B1 in this work.

The binders below were run against SCRIB_1, Q14160 (assay: holdup assay). Conditions: plain residues with an end cap or a label only (N-terminal biotin on a linker: ado-ado).
SCRIB_1, Q14160, sequence (Q14160 718-814): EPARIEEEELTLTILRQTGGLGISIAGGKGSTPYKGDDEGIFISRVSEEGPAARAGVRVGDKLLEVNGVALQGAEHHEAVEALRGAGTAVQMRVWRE
Design: key: below the threshold = too weak to quantify, mostly under pKd 3.1 to 4
A pKd of 3.58 was found for B1 in this work.

What follows are binders tested against SCRIB_3, Q14160 (assay: holdup assay). Conditions: plain residues with an end cap or a label only (N-terminal biotin on a linker: ado-ado).
SCRIB_3, Q14160, sequence (Q14160 999-1103): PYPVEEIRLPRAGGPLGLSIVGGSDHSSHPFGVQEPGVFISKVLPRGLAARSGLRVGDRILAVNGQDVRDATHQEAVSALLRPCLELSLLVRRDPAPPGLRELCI
Design: key: below the threshold = too weak to quantify, mostly under pKd 3.1 to 4
A pKd of 3.74 was found for B1 in this work.

What follows are binders tested against T1, PDZD7_3, Q9H5P4 (assay: holdup assay). Conditions: plain residues with an end cap or a label only (N-terminal biotin on a linker: ado-ado).
Design: key: below the threshold = too weak to quantify, mostly under pKd 3.1 to 4
A pKd of 5.21 was found for B1 in this work.

The binders below were run against T2, SNTG1, Q9NSN8 (assay: holdup assay). Conditions: plain residues with an end cap or a label only (N-terminal biotin on a linker: ado-ado).
Design: key: below the threshold = too weak to quantify, mostly under pKd 3.1 to 4
With B1 the pKd was “below the threshold”.

What follows are binders tested against NHERF4_2, Q86UT5 (assay: holdup assay). Conditions: plain residues with an end cap or a label only (N-terminal biotin on a linker: ado-ado).
NHERF4_2, Q86UT5, sequence (Q86UT5 220-308): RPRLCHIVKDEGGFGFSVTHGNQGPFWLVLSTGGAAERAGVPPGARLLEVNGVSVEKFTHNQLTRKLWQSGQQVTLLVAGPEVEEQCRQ
Design: key: below the threshold = too weak to quantify, mostly under pKd 3.1 to 4
With B1 the pKd was “below the threshold”.

What follows are binders tested against GORASP1, Q9BQQ3 (assay: holdup assay). Conditions: plain residues with an end cap or a label only (N-terminal biotin on a linker: ado-ado).
GORASP1, Q9BQQ3, sequence (Q9BQQ3 1-208): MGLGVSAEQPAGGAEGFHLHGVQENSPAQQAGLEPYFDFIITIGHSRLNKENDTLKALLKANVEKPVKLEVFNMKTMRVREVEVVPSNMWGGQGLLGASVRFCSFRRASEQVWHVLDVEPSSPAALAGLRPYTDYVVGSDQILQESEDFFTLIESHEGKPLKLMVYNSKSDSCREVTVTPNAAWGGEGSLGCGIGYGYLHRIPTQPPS
Design: key: below the threshold = too weak to quantify, mostly under pKd 3.1 to 4
A pKd of 4.11 was found for B1 in this work.

These binders were tested against TJP1_2, Q07157 (assay: holdup assay). Conditions: plain residues with an end cap or a label only (N-terminal biotin on a linker: ado-ado).
TJP1_2, Q07157, sequence (Q07157 181-274): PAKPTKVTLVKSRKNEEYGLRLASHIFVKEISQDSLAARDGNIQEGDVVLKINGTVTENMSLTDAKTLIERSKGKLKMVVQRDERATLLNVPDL
Design: key: below the threshold = too weak to quantify, mostly under pKd 3.1 to 4
In the case of B1, the pKd is reported as “below the threshold”.

These binders were tested against CASK, O14936 (assay: holdup assay). Conditions: plain residues with an end cap or a label only (N-terminal biotin on a linker: ado-ado).
CASK, O14936, sequence (O14936 487-570): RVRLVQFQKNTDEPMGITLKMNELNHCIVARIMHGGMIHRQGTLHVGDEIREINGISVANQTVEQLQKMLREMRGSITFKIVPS
Design: key: below the threshold = too weak to quantify, mostly under pKd 3.1 to 4
For B1, the pKd was “below the threshold”.

The binders below were run against T3, PARD3B_1, Q8TEW8 (assay: holdup assay). Conditions: plain residues with an end cap or a label only (N-terminal biotin on a linker: ado-ado).
Design: key: below the threshold = too weak to quantify, mostly under pKd 3.1 to 4
For B1, the pKd was “below the threshold”.

Each binder was assayed against PARD3_3, Q8TEW0 (assay: holdup assay). Conditions: plain residues with an end cap or a label only (N-terminal biotin on a linker: ado-ado).
PARD3_3, Q8TEW0, sequence (Q8TEW0 582-685): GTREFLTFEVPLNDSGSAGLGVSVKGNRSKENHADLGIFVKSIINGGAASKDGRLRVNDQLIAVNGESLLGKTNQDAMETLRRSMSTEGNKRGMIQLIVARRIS
Design: key: below the threshold = too weak to quantify, mostly under pKd 3.1 to 4
In the case of B1, the pKd is reported as “below the threshold”.

Each binder was assayed against T4, HTRA3, P83110 (assay: holdup assay). Conditions: plain residues with an end cap or a label only (N-terminal biotin on a linker: ado-ado).
Design: key: below the threshold = too weak to quantify, mostly under pKd 3.1 to 4
A pKd of 3.65 was found for B1 in this work.

Each binder was assayed against GRIP2_7, Q9C0E4 (assay: holdup assay). Conditions: plain residues with an end cap or a label only (N-terminal biotin on a linker: ado-ado).
GRIP2_7, Q9C0E4, sequence (Q9C0E4 934-1023): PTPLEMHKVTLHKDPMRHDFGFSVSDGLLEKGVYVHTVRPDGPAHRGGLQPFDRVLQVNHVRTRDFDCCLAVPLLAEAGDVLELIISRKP
Design: key: below the threshold = too weak to quantify, mostly under pKd 3.1 to 4
B1 was tested, and the pKd was “below the threshold”.

These binders were tested against T5, DVL3, Q92997 (assay: holdup assay). Conditions: plain residues with an end cap or a label only (N-terminal biotin on a linker: ado-ado).
Design: key: below the threshold = too weak to quantify, mostly under pKd 3.1 to 4
With B1 the pKd was “below the threshold”.

What follows are binders tested against T6, TJP3_3, O95049 (assay: holdup assay). Conditions: plain residues with an end cap or a label only (N-terminal biotin on a linker: ado-ado).
Design: key: below the threshold = too weak to quantify, mostly under pKd 3.1 to 4
For B1, the pKd was “below the threshold”.

These binders were tested against T7, NHERF3_3, Q5T2W1 (assay: holdup assay). Conditions: plain residues with an end cap or a label only (N-terminal biotin on a linker: ado-ado).
Design: key: below the threshold = too weak to quantify, mostly under pKd 3.1 to 4
In the case of B1, the pKd is reported as “below the threshold”.

The binders below were run against TJP2_1, Q9UDY2 (assay: holdup assay). Conditions: plain residues with an end cap or a label only (N-terminal biotin on a linker: ado-ado).
TJP2_1, Q9UDY2, sequence (Q9UDY2 24-128): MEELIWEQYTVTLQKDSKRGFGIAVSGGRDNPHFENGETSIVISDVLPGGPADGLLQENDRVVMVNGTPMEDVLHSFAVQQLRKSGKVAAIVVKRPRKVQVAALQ
Design: key: below the threshold = too weak to quantify, mostly under pKd 3.1 to 4
A pKd of 4.46 was found for B1 in this work.

Each binder was assayed against MAGI1_2, Q96QZ7 (assay: holdup assay). Conditions: plain residues with an end cap or a label only (N-terminal biotin on a linker: ado-ado).
MAGI1_2, Q96QZ7, sequence (Q96QZ7 456-580): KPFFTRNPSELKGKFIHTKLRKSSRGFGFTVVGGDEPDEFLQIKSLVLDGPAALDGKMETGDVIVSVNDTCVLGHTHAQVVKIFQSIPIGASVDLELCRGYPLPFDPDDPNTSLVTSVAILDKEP
Design: key: below the threshold = too weak to quantify, mostly under pKd 3.1 to 4
A pKd of 4.82 was found for B1 in this work.

These binders were tested against LIMK2, P53671 (assay: holdup assay). Conditions: plain residues with an end cap or a label only (N-terminal biotin on a linker: ado-ado).
LIMK2, P53671, sequence (P53671 143-248): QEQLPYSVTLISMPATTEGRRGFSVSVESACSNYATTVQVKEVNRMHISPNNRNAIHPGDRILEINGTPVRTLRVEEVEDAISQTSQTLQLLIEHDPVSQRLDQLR
Design: key: below the threshold = too weak to quantify, mostly under pKd 3.1 to 4
With B1 the pKd was “below the threshold”.

The binders below were run against T8, DFNB31_2, Q9P202 (assay: holdup assay). Conditions: plain residues with an end cap or a label only (N-terminal biotin on a linker: ado-ado).
Design: key: below the threshold = too weak to quantify, mostly under pKd 3.1 to 4
For B1, the pKd was “below the threshold”.

These binders were tested against DLG2_2, Q15700 (assay: holdup assay). Conditions: plain residues with an end cap or a label only (N-terminal biotin on a linker: ado-ado).
DLG2_2, Q15700, sequence (Q15700 189-283): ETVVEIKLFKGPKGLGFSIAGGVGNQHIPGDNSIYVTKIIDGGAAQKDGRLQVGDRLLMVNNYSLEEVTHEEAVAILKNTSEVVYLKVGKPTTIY
Design: key: below the threshold = too weak to quantify, mostly under pKd 3.1 to 4
A pKd of 5.21 was found for B1 in this work.

These binders were tested against T9, APBA3_1, O96018 (assay: holdup assay). Conditions: plain residues with an end cap or a label only (N-terminal biotin on a linker: ado-ado).
Design: key: below the threshold = too weak to quantify, mostly under pKd 3.1 to 4
For B1, the pKd was “below the threshold”.

The binders below were run against T10, SIPA1L2, Q9P2F8 (assay: holdup assay). Conditions: plain residues with an end cap or a label only (N-terminal biotin on a linker: ado-ado).
Design: key: below the threshold = too weak to quantify, mostly under pKd 3.1 to 4
With B1 the pKd was “below the threshold”.

What follows are binders tested against T11, SNTA1, Q13424 (assay: holdup assay). Conditions: plain residues with an end cap or a label only (N-terminal biotin on a linker: ado-ado).
Design: key: below the threshold = too weak to quantify, mostly under pKd 3.1 to 4
A pKd of 4.12 was found for B1 in this work.

The binders below were run against T12, APBA2_1, Q99767 (assay: holdup assay). Conditions: plain residues with an end cap or a label only (N-terminal biotin on a linker: ado-ado).
Design: key: below the threshold = too weak to quantify, mostly under pKd 3.1 to 4
B1 was tested, and the pKd was “below the threshold”.
